Results published in patent publication US20250084158A1.

Tests used:
[1] = target: human CLL-1 on cells (human) (UniProt Q5QGZ9); assay: cell-based or functional assay
[2] = target: human CLL-1 on cells (human) (UniProt Q5QGZ9); assay: FACS (PE-anti-human IgG), U937 cells
[3] = target: human CLL-1 on cells (human) (UniProt Q5QGZ9); assay: FACS (PE-anti-human IgG), HL-60 cells

Chain of human CLL-1 on cells (human) (Q5QGZ9 whole entry): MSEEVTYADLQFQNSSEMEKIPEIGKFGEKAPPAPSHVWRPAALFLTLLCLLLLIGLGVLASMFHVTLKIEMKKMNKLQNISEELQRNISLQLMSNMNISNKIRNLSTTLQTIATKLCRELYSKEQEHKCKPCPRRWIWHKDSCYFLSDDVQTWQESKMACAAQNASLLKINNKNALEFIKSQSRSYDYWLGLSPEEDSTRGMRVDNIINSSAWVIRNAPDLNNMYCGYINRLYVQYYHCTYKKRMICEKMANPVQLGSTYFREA

Which CD25 on CD4 T cells, HL60 targets, EC50 [1] does the source give for MCLA-117 (bispecific antibody) here?
The CD25 on CD4 T cells, HL60 targets, EC50 was 7.12 nM.

What about the CD25 on CD4 T cells, U937 targets, EC50 [1] of the same substance?
The CD25 on CD4 T cells, U937 targets, EC50 was 2.53 nM.

And the CD25 on CD8 T cells, HL60 targets, EC50 [1]?
Its CD25 on CD8 T cells, HL60 targets, EC50 is 7.68 nM.

And the CD25 on CD8 T cells, U937 targets, EC50 [1]?
Its CD25 on CD8 T cells, U937 targets, EC50 is 2.88 nM.

What about the CD69 on CD4 T cells, HL60 targets, EC50 [1] of the same substance?
Its CD69 on CD4 T cells, HL60 targets, EC50 is 2.33 nM.

What about the CD69 on CD4 T cells, U937 targets, EC50 [1] of the same substance?
The CD69 on CD4 T cells, U937 targets, EC50 was 1.19 nM.

What about the CD69 on CD8 T cells, HL60 targets, EC50 [1] of the same substance?
The CD69 on CD8 T cells, HL60 targets, EC50 was 2.89 nM.

And the CD69 on CD8 T cells, U937 targets, EC50 [1]?
The CD69 on CD8 T cells, U937 targets, EC50 was 0.713 nM.

And the U937 cell lysis, EC50 [1]?
The U937 cell lysis, EC50 was 0.128 nM.

What about the EC50 [2] of the same substance?
The EC50 was 4.53 nM.

And the EC50 [3]?
The EC50 was 35.1 nM.
